Source: US20230093708A1, “PROTEIN NANOPARTICLE DESIGN AND APPLICATION” (Duke University, priority 2020, published 2023)

Experiments:
αvβ3 integrin = αvβ3 integrin (Homo sapiens, UniProt P05106+P06756); experiment: SPR of crosslinked and native pAzF diblock constructs; format: binding; conditions: crosslinked UAA5-40-based constructs
Description: (§1) Though we were interested in the downstream effects of the treatment with crosslinked nanoparticles, we also wanted to investigate how chemical crosslinking affected the binding to the cell membrane receptors themselves. For this, the binding affinities of crosslinked and native diblock architectures were evaluated using surface plasmon resonance (SPR).
To characterize the integrin-targeting constructs, we started by determining the KD values of the UAA5-40-based constructs. […] A closer look at the SPR sensograms describes the mechanism for this effect where the main reason for the increased KD for the ligands is a result of vastly different association rates (kon) rather than differences in koff.

[1] = Critical micelle concentration by pyrene I1/I3 fluorescence; format: physicochemical; conditions: inflection point of sigmoidal fit, triplicate data
Description: Key parameters of interest are the hydrophilicity of the corona-forming block, the hydrophilicity of the core block, the overall length of the co-polypeptide and the ratio of the two blocks. Parameters of evaluation are the size, morphology, stability, and thermoresponsive behavior. All measurements were made in 140 mM NaCl, 10 mM phosphate buffer, 3 mM KCl, pH 7.4 unless otherwise specified. Size was evaluated by the hydrodynamic radios (Rh) and radius of gyration (Rg) by dynamic light scattering (DLS) and static light scattering (SLS) respectively. Rg and Rh can be combined to yield the shape factor ρ=Rg/Rh, which provides a rough indication of the morphology of the scatterer. […] For an elongated scatterer, the shape factor depends upon the aspect ratio. A combination of temperature dependent turbidity and DLS was utilized to determine the phase behavior of the block co-polypeptides. Cryogenic transmission electron microscopy (Cryo-TEM) was utilized to evaluate the morphology and provide crucial insight into the hydration of the core/corona chains. Stability of the assembled nanostructure was determined by a shift in the I1/I3 fluorescent bands of pyrene as described previously.
All of these modifications to the core and corona chains prompted us to measure the critical micelle concentration (CMC) of these micelle constructs. […]

[2] = Static and dynamic light scattering (SLS/DLS) of block co-polypeptides; format: physicochemical; conditions: for ρ / Nagg / Rg(nm) / Rh (nm): Table 9; for ρ: Rg/Rh; for Nagg / Rg(nm) / Rh (nm): UCST-UCST block co-polypeptides
Procedure, shortened: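 Samples at 10 μM in PBS (140 mM NaCl, 10 mM phosphate, 3 mM KCl, pH 7.4), filtered 0.45 μm, measured at 15 °C over 30°–150° in 5° steps. Rh from cumulant fit of DLS, extrapolated to zero angle. Rg and MW from partial Zimm plots of SLS.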

[3] = Temperature-programmed dynamic light scattering; format: physicochemical; conditions: upon cooling
Description: Temperature-programmed dynamic light scattering experiments were carried out using a Dynapro plate reader (Wyatt Technology; Santa Barbara, Calif.) with samples filtered through 0.45 μm Millex-GV filters. Data were collected at increments of 1° C., and the cumulant fit hydrodynamic radius was taken as the radius. The Tt was defined as the temperature at which aggregates of size hundreds of nanometers were formed.
Each block co-polypeptide was analyzed by dynamic light scattering (DLS) at several temperatures between 4° C. and 37° C. to determine the thermal stability of the micelles, and to determine their radius of hydration (Rh). […] In contrast, RLP40-ELP80 (SEQ ID NO: 84) and RLP40-ELP80-Fn3 (SEQ ID NO: 96) self-assembled into micelles with a Rh of 30 and 32 nm, respectively, between 20-37° C. (FIG. 15).
Therefore, to get a more accurate picture, we monitored the Rh as we slowly cooled the solution. We observed two different overall behaviors. [S]-40-[QHN]-40 (SEQ ID NO: 100) upon cooling underwent a clear unimer to micelle transition at ˜55° C. and a clear micelle to aggregate transition at 28° C. (FIG. 32B). A unimer to micelle transition that is temperature dependent is known as the critical micellization temperature (CMT). As we know from before, this UCST aggregation temperature is dependent on the solution concentration. [S]-80-[QHN]-40 (SEQ ID NO: 101) remained a micelle at the highest temperature we could measure with the instrument. Upon cooling the size of the aggregate increased slightly until a clear aggregate transition at 18° C.

DR5 = DR5 (Homo sapiens, UniProt O14763); experiment: SPR of DR5-targeting UAA5-40 constructs; format: binding; conditions: native construct, same concentration range
Description: as §1
This extremely good binding constant can be mainly attributed to the koff rate which is so low that it is most probably even below the limit of detection of the SPR instrument. As opposed to the integrin-targeting UAA5-40 particles, we however also observed very strong binding for the native Tn3 construct in the same concentration range (FIG. 53B). […] Principally, this was not a too unexpected result since we already knew that apoptosis induction via DR5-binding required downstream trimerization of the ligand-bound DR5 receptors in the cell membrane. Therefore, we had expected that the reported multivalency requirement for Tn3-action was at least partly stemming from this mechanistic effect rather than the DR5-binding itself.

Chain of αvβ3 integrin (P06756 31-889 limits assumed): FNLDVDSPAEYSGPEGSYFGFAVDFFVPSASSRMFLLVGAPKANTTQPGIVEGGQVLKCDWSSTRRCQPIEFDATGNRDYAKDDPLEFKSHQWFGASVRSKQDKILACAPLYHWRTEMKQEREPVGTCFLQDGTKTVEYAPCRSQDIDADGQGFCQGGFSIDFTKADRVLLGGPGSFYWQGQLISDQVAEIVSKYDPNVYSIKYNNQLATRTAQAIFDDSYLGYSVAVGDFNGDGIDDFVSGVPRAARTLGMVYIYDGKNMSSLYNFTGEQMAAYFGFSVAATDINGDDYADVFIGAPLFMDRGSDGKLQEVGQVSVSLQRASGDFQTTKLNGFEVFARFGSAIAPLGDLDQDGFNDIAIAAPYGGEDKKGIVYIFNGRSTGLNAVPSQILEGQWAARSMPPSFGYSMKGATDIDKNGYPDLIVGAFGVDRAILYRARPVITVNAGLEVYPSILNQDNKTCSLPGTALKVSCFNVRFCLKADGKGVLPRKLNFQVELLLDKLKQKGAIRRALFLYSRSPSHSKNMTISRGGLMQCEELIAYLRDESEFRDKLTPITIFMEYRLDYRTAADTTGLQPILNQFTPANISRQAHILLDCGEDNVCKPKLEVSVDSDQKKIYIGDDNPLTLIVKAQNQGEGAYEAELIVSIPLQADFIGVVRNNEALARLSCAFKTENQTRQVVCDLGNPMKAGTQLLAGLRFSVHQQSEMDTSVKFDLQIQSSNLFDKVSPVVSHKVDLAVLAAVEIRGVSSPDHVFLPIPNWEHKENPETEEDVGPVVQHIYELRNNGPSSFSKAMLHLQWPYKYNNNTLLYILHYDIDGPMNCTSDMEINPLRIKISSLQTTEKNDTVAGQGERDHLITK
Chain of αvβ3 integrin (P06756 891-1048 partner limits assumed): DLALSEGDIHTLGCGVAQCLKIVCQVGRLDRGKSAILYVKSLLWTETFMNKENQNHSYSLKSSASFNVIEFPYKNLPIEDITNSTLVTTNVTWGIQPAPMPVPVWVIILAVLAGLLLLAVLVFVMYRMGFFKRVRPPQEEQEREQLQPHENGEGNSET
Chain of αvβ3 integrin (P05106 27-788): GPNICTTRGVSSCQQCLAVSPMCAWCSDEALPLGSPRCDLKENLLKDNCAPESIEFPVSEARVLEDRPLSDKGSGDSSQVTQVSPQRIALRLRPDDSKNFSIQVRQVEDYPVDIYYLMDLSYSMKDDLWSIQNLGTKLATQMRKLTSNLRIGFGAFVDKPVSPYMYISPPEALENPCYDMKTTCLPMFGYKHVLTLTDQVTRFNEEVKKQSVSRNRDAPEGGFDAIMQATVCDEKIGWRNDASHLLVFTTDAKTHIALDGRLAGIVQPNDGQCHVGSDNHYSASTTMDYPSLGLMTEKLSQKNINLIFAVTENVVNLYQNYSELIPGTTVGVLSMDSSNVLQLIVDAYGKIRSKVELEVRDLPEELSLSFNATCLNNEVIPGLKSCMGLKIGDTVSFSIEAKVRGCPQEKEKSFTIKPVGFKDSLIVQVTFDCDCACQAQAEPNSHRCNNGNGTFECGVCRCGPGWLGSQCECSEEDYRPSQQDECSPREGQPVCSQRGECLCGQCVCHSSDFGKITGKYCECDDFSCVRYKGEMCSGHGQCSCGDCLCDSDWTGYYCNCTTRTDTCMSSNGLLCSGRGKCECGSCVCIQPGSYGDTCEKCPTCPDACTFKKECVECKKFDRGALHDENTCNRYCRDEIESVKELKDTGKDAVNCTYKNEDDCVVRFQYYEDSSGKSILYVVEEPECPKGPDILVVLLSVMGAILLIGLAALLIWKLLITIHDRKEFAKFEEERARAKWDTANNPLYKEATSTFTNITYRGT

Question: With “GRGDSPAS: UAA5-40-K8D4-ligand construct with integrin-targeting GRGDSPAS ligand (SEQ ID NO: 76)” as the molecule, how does the Kd (αvβ3 integrin) read?
Answer: 20 nM

B1: [S]-80-[QHN]-40: block co-polypeptide of two UCST blocks, (GRGDSPYS)80-(GRGDQPHN)40 (protein)
chain: GRGDSPYSGRGDSPYSGRGDSPYSGRGDSPYSGRGDSPYSGRGDSPYSGRGDSPYSGRGDSPYSGRGDSPYSGRGDSPYSGRGDSPYSGRGDSPYSGRGDSPYSGRGDSPYSGRGDSPYSGRGDSPYSGRGDSPYSGRGDSPYSGRGDSPYSGRGDSPYSGRGDSPYSGRGDSPYSGRGDSPYSGRGDSPYSGRGDSPYSGRGDSPYSGRGDSPYSGRGDSPYSGRGDSPYSGRGDSPYSGRGDSPYSGRGDSPYSGRGDSPYSGRGDSPYSGRGDSPYSGRGDSPYSGRGDSPYSGRGDSPYSGRGDSPYSGRGDSPYSGRGDSPYSGRGDSPYSGRGDSPYSGRGDSPYSGRGDSPYSGRGDSPYSGRGDSPYSGRGDSPYSGRGDSPYSGRGDSPYSGRGDSPYSGRGDSPYSGRGDSPYSGRGDSPYSGRGDSPYSGRGDSPYSGRGDSPYSGRGDSPYSGRGDSPYSGRGDSPYSGRGDSPYSGRGDSPYSGRGDSPYSGRGDSPYSGRGDSPYSGRGDSPYSGRGDSPYSGRGDSPYSGRGDSPYSGRGDSPYSGRGDSPYSGRGDSPYSGRGDSPYSGRGDSPYSGRGDSPYSGRGDSPYSGRGDSPYSGRGDSPYSGRGDSPYSGRGDSPYSGRGDQPHNGRGDQPHNGRGDQPHNGRGDQPHNGRGDQPHNGRGDQPHNGRGDQPHNGRGDQPHNGRGDQPHNGRGDQPHNGRGDQPHNGRGDQPHNGRGDQPHNGRGDQPHNGRGDQPHNGRGDQPHNGRGDQPHNGRGDQPHNGRGDQPHNGRGDQPHNGRGDQPHNGRGDQPHNGRGDQPHNGRGDQPHNGRGDQPHNGRGDQPHNGRGDQPHNGRGDQPHNGRGDQPHNGRGDQPHNGRGDQPHNGRGDQPHNGRGDQPHNGRGDQPHNGRGDQPHNGRGDQPHNGRGDQPHNGRGDQPHNGRGDQPHNGRGDQPHN
Question: For B1, which “critical micelle concentration (CMC)” value [1] is on record?
Answer: 0.4 µM

Question: And the “shape factor / form factor (Rg/Rh)” value [2]?
Answer: > 1

Question: What about the ρ [2] of the same molecule?
Answer: 1.2

Question: What about the Nagg [2] of the same molecule?
Answer: 1430

Question: What about the “Rg(nm)” value [2] of the same molecule?
Answer: 75.7 nm

Question: What about the “Rh (nm)” value [2] of the same molecule?
Answer: 62.8 nm

Question: And the “micelle to aggregate transition (UCST aggregation)” value [3]?
Answer: 18 °C

B2: Tn3: UAA5-40-K8D4-ligand construct with DR5-targeting Tn3 ligand (SEQ ID NO: 62) (protein)
chain: AIEVKDVTDTTALITWAKPWVDPPPLWGIELTYGIKDVPGDRTTIDLQQKHTAYSIGNLKPDTEYEVSLISFDPYGMRSKPAKETFTT
Question: For B2, which Kd (DR5) is on record?
Answer: 0.25 nM

B3: [S]-40-[QHN]-40: block co-polypeptide of two UCST blocks, (GRGDSPYS)40-(GRGDQPHN)40 (protein)
chain: GRGDSPYSGRGDSPYSGRGDSPYSGRGDSPYSGRGDSPYSGRGDSPYSGRGDSPYSGRGDSPYSGRGDSPYSGRGDSPYSGRGDSPYSGRGDSPYSGRGDSPYSGRGDSPYSGRGDSPYSGRGDSPYSGRGDSPYSGRGDSPYSGRGDSPYSGRGDSPYSGRGDSPYSGRGDSPYSGRGDSPYSGRGDSPYSGRGDSPYSGRGDSPYSGRGDSPYSGRGDSPYSGRGDSPYSGRGDSPYSGRGDSPYSGRGDSPYSGRGDSPYSGRGDSPYSGRGDSPYSGRGDSPYSGRGDSPYSGRGDSPYSGRGDSPYSGRGDSPYSGRGDQPHNGRGDQPHNGRGDQPHNGRGDQPHNGRGDQPHNGRGDQPHNGRGDQPHNGRGDQPHNGRGDQPHNGRGDQPHNGRGDQPHNGRGDQPHNGRGDQPHNGRGDQPHNGRGDQPHNGRGDQPHNGRGDQPHNGRGDQPHNGRGDQPHNGRGDQPHNGRGDQPHNGRGDQPHNGRGDQPHNGRGDQPHNGRGDQPHNGRGDQPHNGRGDQPHNGRGDQPHNGRGDQPHNGRGDQPHNGRGDQPHNGRGDQPHNGRGDQPHNGRGDQPHNGRGDQPHNGRGDQPHNGRGDQPHNGRGDQPHNGRGDQPHNGRGDQPHN
Question: Which “critical micelle concentration (CMC)” value [1] does the source give for B3 here?
Answer: 3 µM

Question: What about the “aggregation number (Nagg)” value [2] of the same molecule?
Answer: 43

Question: What about the “hydrodynamic radius (Rh)” value [2] of the same molecule?
Answer: 28.4 nm

Question: And the “radius of gyration (Rg)” value [2]?
Answer: 35.1 nm

Question: And the ρ [2]?
Answer: 1.2

Question: What about the Nagg [2] of the same molecule?
Answer: 43

Question: And the “Rg(nm)” value [2]?
Answer: 35.1 nm

Question: And the “Rh (nm)” value [2]?
Answer: 28.4 nm

Question: And the “micelle to aggregate transition (UCST aggregation)” value [3]?
Answer: 28 °C

Question: What about the “unimer to micelle transition (critical micellization temperature, CMT)” value [3] of the same molecule?
Answer: ~55 °C
